The text below walks through data of patent US20030004314A1 (published 2003).

Common to all, as to experiment: cell-based or functional assay
For experiment [1], the target named is T1, HUVEC IL-4 receptor (IL-4Rα/γ-like receptor component) (human, UniProt P24394 26-825).
In experiment [2] the target is T2, T cell IL-4 receptor (IL-4Rα/IL-2Rγ) (human, UniProt P24394 26-825; P31785 23-369).
T2 sequence (looked up) 1: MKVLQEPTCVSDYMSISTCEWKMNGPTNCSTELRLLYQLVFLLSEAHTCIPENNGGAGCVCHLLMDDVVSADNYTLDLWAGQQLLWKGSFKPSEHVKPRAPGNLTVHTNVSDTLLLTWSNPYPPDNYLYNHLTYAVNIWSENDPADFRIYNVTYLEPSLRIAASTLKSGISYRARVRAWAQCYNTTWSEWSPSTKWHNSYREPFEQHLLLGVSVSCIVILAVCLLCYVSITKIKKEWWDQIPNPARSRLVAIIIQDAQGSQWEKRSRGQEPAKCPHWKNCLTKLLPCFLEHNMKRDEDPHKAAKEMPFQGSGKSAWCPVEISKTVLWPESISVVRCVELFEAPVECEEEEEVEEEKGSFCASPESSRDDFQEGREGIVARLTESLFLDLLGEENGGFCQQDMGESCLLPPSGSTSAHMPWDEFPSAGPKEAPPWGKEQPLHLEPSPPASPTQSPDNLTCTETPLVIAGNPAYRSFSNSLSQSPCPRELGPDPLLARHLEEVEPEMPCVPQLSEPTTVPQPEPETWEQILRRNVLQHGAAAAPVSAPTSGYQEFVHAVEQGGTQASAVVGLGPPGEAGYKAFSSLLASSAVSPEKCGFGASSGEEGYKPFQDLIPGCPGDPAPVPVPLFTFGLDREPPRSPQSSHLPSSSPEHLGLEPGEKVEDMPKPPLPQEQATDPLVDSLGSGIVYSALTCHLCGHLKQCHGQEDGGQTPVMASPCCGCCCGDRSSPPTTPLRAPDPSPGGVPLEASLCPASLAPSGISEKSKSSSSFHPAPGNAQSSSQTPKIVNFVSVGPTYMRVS
T2 sequence (looked up) 2: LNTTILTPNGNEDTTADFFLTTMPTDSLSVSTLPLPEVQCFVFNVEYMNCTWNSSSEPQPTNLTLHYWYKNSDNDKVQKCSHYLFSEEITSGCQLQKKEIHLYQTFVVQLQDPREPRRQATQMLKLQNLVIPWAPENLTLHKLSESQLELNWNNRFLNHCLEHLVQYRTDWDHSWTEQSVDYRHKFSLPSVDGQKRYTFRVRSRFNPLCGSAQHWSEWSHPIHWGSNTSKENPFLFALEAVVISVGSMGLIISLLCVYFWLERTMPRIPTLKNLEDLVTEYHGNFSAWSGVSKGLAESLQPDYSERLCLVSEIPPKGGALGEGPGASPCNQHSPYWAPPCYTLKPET

The target of experiment [3] is T1, HUVEC IL-4 receptor (IL-4Rα/γ-like …). This is another data set of the same source.

B1: IL-4 mutein R121E (ligand)
chain: HKCDITLQEIIKTLNSLTEQKTLCTELTVTDIFAASKNTTEKETFCRAATVLRQFYSHHEKDTRCLGATAQQFHRHKQLIRFLKRLDRNLWGLAGLNSCPVKEANQSTLENFLERLKTIMEEKYSKCSS
In the case of B1, the “IC50, HUVEC antagonist assay (IL-4-induced IL-6 secretion)” value in experiment [1] is roughly 60 nM. Moreover, the “1° T cell proliferation, EC50, pM” value in experiment [2] stood at 65 pM.

B2: IL-4 mutein R121T/E122F/Y124Q (ligand)
chain: HKCDITLQEIIKTLNSLTEQKTLCTELTVTDIFAASKNTTEKETFCRAATVLRQFYSHHEKDTRCLGATAQQFHRHKQLIRFLKRLDRNLWGLAGLNSCPVKEANQSTLENFLERLKTIMTFKQSKCSS
In the case of B2, the “1° T cell proliferation, EC50, pM” value in experiment [2] stood at 15 pM.

B3: IL-4 mutein Y124S (ligand)
chain: HKCDITLQEIIKTLNSLTEQKTLCTELTVTDIFAASKNTTEKETFCRAATVLRQFYSHHEKDTRCLGATAQQFHRHKQLIRFLKRLDRNLWGLAGLNSCPVKEANQSTLENFLERLKTIMREKSSKCSS
As to B3, the “1° T cell proliferation, EC50, pM” value in experiment [2] is 425 pM. Also, the “HUVEC, IL-6 secretion, EC50, pM” value in experiment [3] came to 350 pM.

B4: IL-4 mutein R121A (ligand)
chain: HKCDITLQEIIKTLNSLTEQKTLCTELTVTDIFAASKNTTEKETFCRAATVLRQFYSHHEKDTRCLGATAQQFHRHKQLIRFLKRLDRNLWGLAGLNSCPVKEANQSTLENFLERLKTIMAEKYSKCSS
With B4, the “1° T cell proliferation, EC50, pM” value in experiment [2] came to 150 pM. Moreover, the “HUVEC, IL-6 secretion, EC50, pM” value in experiment [3] was determined as 20 pM.

B5: IL-4 mutein R121W (ligand)
chain: HKCDITLQEIIKTLNSLTEQKTLCTELTVTDIFAASKNTTEKETFCRAATVLRQFYSHHEKDTRCLGATAQQFHRHKQLIRFLKRLDRNLWGLAGLNSCPVKEANQSTLENFLERLKTIMWEKYSKCSS
Regarding B5, in experiment [2], the “1° T cell proliferation, EC50, pM” value came to 150 pM. The “HUVEC, IL-6 secretion, EC50, pM” value in experiment [3] was 80 pM.

B6: IL-4 mutein Y124Q (ligand)
chain: HKCDITLQEIIKTLNSLTEQKTLCTELTVTDIFAASKNTTEKETFCRAATVLRQFYSHHEKDTRCLGATAQQFHRHKQLIRFLKRLDRNLWGLAGLNSCPVKEANQSTLENFLERLKTIMREKQSKCSS
Regarding B6, in experiment [2], the “1° T cell proliferation, EC50, pM” value came out at 250 pM. For the same molecule, the “HUVEC, IL-6 secretion, EC50, pM” value in experiment [3] came out at 200 pM.

B7: IL-4 mutein Y124R (ligand)
chain: HKCDITLQEIIKTLNSLTEQKTLCTELTVTDIFAASKNTTEKETFCRAATVLRQFYSHHEKDTRCLGATAQQFHRHKQLIRFLKRLDRNLWGLAGLNSCPVKEANQSTLENFLERLKTIMREKRSKCSS
Take B7: in experiment [2], the “1° T cell proliferation, EC50, pM” value stood at 750 pM. For the same molecule, in experiment [3], the “HUVEC, IL-6 secretion, EC50, pM” value came out at 250 pM.

B8: IL-4 mutein T13D/R121E (ligand)
chain: HKCDITLQEIIKDLNSLTEQKTLCTELTVTDIFAASKNTTEKETFCRAATVLRQFYSHHEKDTRCLGATAQQFHRHKQLIRFLKRLDRNLWGLAGLNSCPVKEANQSTLENFLERLKTIMEEKYSKCSS
For the molecule B8, in experiment [1], the “IC50, HUVEC antagonist assay (IL-4-induced IL-6 secretion)” value is roughly 2.2 nM and the “antagonist potency relative to R121E, HUVEC antagonist assay” value was roughly 27 fold. Moreover, in experiment [2], the “1° T cell proliferation, EC50, pM” value came to 100 pM.

B9: IL-4 mutein R121H (ligand)
chain: HKCDITLQEIIKTLNSLTEQKTLCTELTVTDIFAASKNTTEKETFCRAATVLRQFYSHHEKDTRCLGATAQQFHRHKQLIRFLKRLDRNLWGLAGLNSCPVKEANQSTLENFLERLKTIMHEKYSKCSS
For the molecule B9, the “1° T cell proliferation, EC50, pM” value in experiment [2] was 150 pM. Besides, in experiment [3], the “HUVEC, IL-6 secretion, EC50, pM” value stood at 40 pM.

B10: IL-4 mutein R121F (ligand)
chain: HKCDITLQEIIKTLNSLTEQKTLCTELTVTDIFAASKNTTEKETFCRAATVLRQFYSHHEKDTRCLGATAQQFHRHKQLIRFLKRLDRNLWGLAGLNSCPVKEANQSTLENFLERLKTIMFEKYSKCSS
Take B10: the “1° T cell proliferation, EC50, pM” value in experiment [2] was determined as 150 pM. Besides, the “HUVEC, IL-6 secretion, EC50, pM” value in experiment [3] is 20 pM.

B11: IL-4 mutein R121P (ligand)
chain: HKCDITLQEIIKTLNSLTEQKTLCTELTVTDIFAASKNTTEKETFCRAATVLRQFYSHHEKDTRCLGATAQQFHRHKQLIRFLKRLDRNLWGLAGLNSCPVKEANQSTLENFLERLKTIMPEKYSKCSS
As to B11, the “1° T cell proliferation, EC50, pM” value in experiment [2] came to 100 pM. Besides, in experiment [3], the “HUVEC, IL-6 secretion, EC50, pM” value is 650 pM.

B12: IL-4 mutein Y124A (ligand)
chain: HKCDITLQEIIKTLNSLTEQKTLCTELTVTDIFAASKNTTEKETFCRAATVLRQFYSHHEKDTRCLGATAQQFHRHKQLIRFLKRLDRNLWGLAGLNSCPVKEANQSTLENFLERLKTIMREKASKCSS
Turning to B12, the “1° T cell proliferation, EC50, pM” value in experiment [2] came out at 150 pM. Moreover, the “HUVEC, IL-6 secretion, EC50, pM” value in experiment [3] came to 65 pM.

B13: IL-4 mutein R121N (ligand)
chain: HKCDITLQEIIKTLNSLTEQKTLCTELTVTDIFAASKNTTEKETFCRAATVLRQFYSHHEKDTRCLGATAQQFHRHKQLIRFLKRLDRNLWGLAGLNSCPVKEANQSTLENFLERLKTIMNEKYSKCSS
For the molecule B13, in experiment [2], the “1° T cell proliferation, EC50, pM” value is 150 pM. Also, the “HUVEC, IL-6 secretion, EC50, pM” value in experiment [3] was 35 pM.

B14: IL-4 mutein R121D (ligand)
chain: HKCDITLQEIIKTLNSLTEQKTLCTELTVTDIFAASKNTTEKETFCRAATVLRQFYSHHEKDTRCLGATAQQFHRHKQLIRFLKRLDRNLWGLAGLNSCPVKEANQSTLENFLERLKTIMDEKYSKCSS
In the case of B14, the “1° T cell proliferation, EC50, pM” value in experiment [2] came to 100 pM.

B15: IL-4 mutein R121K (ligand)
chain: HKCDITLQEIIKTLNSLTEQKTLCTELTVTDIFAASKNTTEKETFCRAATVLRQFYSHHEKDTRCLGATAQQFHRHKQLIRFLKRLDRNLWGLAGLNSCPVKEANQSTLENFLERLKTIMKEKYSKCSS
In the case of B15, the “1° T cell proliferation, EC50, pM” value in experiment [2] worked out at 150 pM. Further, the “HUVEC, IL-6 secretion, EC50, pM” value in experiment [3] is 100 pM.

B16: IL-4 mutein R121I (ligand)
chain: HKCDITLQEIIKTLNSLTEQKTLCTELTVTDIFAASKNTTEKETFCRAATVLRQFYSHHEKDTRCLGATAQQFHRHKQLIRFLKRLDRNLWGLAGLNSCPVKEANQSTLENFLERLKTIMIEKYSKCSS
Turning to B16, the “1° T cell proliferation, EC50, pM” value in experiment [2] turned out to be 100 pM. The “HUVEC, IL-6 secretion, EC50, pM” value in experiment [3] came out at 40 pM.

B17: IL-4 mutein R121T (ligand)
chain: HKCDITLQEIIKTLNSLTEQKTLCTELTVTDIFAASKNTTEKETFCRAATVLRQFYSHHEKDTRCLGATAQQFHRHKQLIRFLKRLDRNLWGLAGLNSCPVKEANQSTLENFLERLKTIMTEKYSKCSS
Take B17: in experiment [2], the “1° T cell proliferation, EC50, pM” value worked out at 150 pM. Moreover, the “HUVEC, IL-6 secretion, EC50, pM” value in experiment [3] was found to be 20 pM.

B18: IL-4 mutein Y124T (ligand)
chain: HKCDITLQEIIKTLNSLTEQKTLCTELTVTDIFAASKNTTEKETFCRAATVLRQFYSHHEKDTRCLGATAQQFHRHKQLIRFLKRLDRNLWGLAGLNSCPVKEANQSTLENFLERLKTIMREKTSKCSS
For B18, in experiment [2], the “1° T cell proliferation, EC50, pM” value was determined as 300 pM. Also, the “HUVEC, IL-6 secretion, EC50, pM” value in experiment [3] came to 350 pM.

B19: IL-4 mutein Y124A/S125A (ligand)
chain: HKCDITLQEIIKTLNSLTEQKTLCTELTVTDIFAASKNTTEKETFCRAATVLRQFYSHHEKDTRCLGATAQQFHRHKQLIRFLKRLDRNLWGLAGLNSCPVKEANQSTLENFLERLKTIMREKAAKCSS
For the molecule B19, the “1° T cell proliferation, EC50, pM” value in experiment [2] turned out to be 600 pM. Moreover, in experiment [3], the “HUVEC, IL-6 secretion, EC50, pM” value was found to be 200 pM.
